In paper PMC5454376, “Molecular mechanism of Gαi activation by non-GPCR proteins with a Gα-Binding and Activating motif” (Nature Communications, 2017):

Tests used:
[1] = test system: Gαi3-[GTP]; test: Pull-down, GDP/AlF4^−-loaded Gαi3; type: binding, rat; settings: GST fusion on glutathione-agarose, 4 °C, pH 8.1, immunoblot
Method: (§1) Preparation of nucleotide-free Gαi3 and pull-down assay
(§2) His-tagged rat Gαi3 cloned in a pET28b vector was purified from BL21(DE3) bacteria (Life Technologies) after isopropyl-[beta]-D-thiogalactoside (IPTG) induction. Nucleotide-free Gαi3 was prepared by promoting nucleotide release with high concentrations of ammonium sulfate in the presence of glycerol. For this, His-Gαi3 was run through a Superdex S75 column equilibrated with 20 mM Tris-HCl (pH 7.4), 20 mM NaCl, 1 mM MgCl2, 1 mM dithiothreitol (DTT), 10 μM GDP and 5% (v/v) glycerol. A volume of 200 μl of His-Gαi3 at ∼5 μM were loaded on a Sephadex G-25 column (10 ml) equilibrated with 1 M ammonium sulfate, 20% (v:v) glycerol (pH 6) and the protein eluted at room temperature with the same buffer. Protein-containing fractions were pooled (∼400–600 μl) and incubated overnight at 4 °C. […] After transfer to polyvinylidene difluoride (PVDF) membranes, GST-fused proteins were visualized by Ponceau S staining and His-Gαi3 detected by immunoblotting with mouse anti-polyHis-Tag primary antibodies (1:2,500, Sigma, H1029) and goat anti-mouse IRDye 800F(ab′)2 secondary antibodies (1:10,000, Li-Cor) using an Odyssey Infrared Imaging System (Li-Cor Biosciences). […]

[2] = test system: Gα; settings: cited from earlier work
From the text: GBA proteins also differ from the non-receptor GEF Ric-8A. Although both Ric-8A and GBA proteins activate monomeric Gα instead of Gαβγ trimers, removal of the C terminus of Gα only abrogates Ric-8A action. This indicates a different mode of G-protein binding for Ric-8A that resembles how GPCR bind. […] We are confident about the similarity on which the model was built because of several lines of evidence presented in this manuscript and in previously published work. […] Second, sequence similarity with the KB-752 and rudimentary modeling allowed us to identify residues in the GBA motif of GIV ...

[3] = test system: Gαi3-[GDP]; test: Pull-down, GDP-loaded Gαi3; type: binding, rat; settings: GST fusion on glutathione-agarose, 100 μM GDP, 4 °C, pH 8.1, immunoblot
Method: as §1, §2

[4] = test system: Gαi3-[ ]; test: Pull-down, nucleotide-free Gαi3; type: binding, rat; settings: GST fusion on glutathione-agarose (GIV 1,671–1,755; Ric-8A 12–491), 4 °C, pH 8.1, immunoblot
Method: as §1, §2

[5] = test system: Gαi3 N269D; test: Co-immunoprecipitation in HEK293T cells, Gαi3 N269D versus WT; type: binding; settings: HEK293T lysates, FLAG-tagged Gαi3 N269D vs WT; GST-Ric-8A 1 μg added
Method: HEK293T cells (American Type Culture Collection) were grown at 37 °C in DMEM supplemented with 10% FBS, 100 U ml^−1 penicillin, 100 μg ml^−1 streptomycin, 1% L-glutamine and 5% CO2. DNA plasmids encoding for C-terminally 3xFLAG-tagged Gαi3 (ref. [25]) or an empty plasmid (p3xFLAG-CMV-14) were transfected using the calcium phosphate method in 10 cm dishes. The DNA amount for the Gαi3 N269D plasmid was threefold (12 μg) of that for Gαi3 WT (4 μg) to equalize their expression levels. Cells were collected 48 h after transfection by gently scrapping in PBS, centrifuged and resuspended in 1 ml of lysis buffer (20 mM HEPES (pH 7.2), 5 mM Mg(CH3COO)2, 125 mM K(CH3COO), 0.4% (v:v) Triton X-100, 1 mM DTT, 10 mM β-glycerophosphate and 0.5 mM Na3VO4 supplemented with a protease inhibitor cocktail (Sigma; catalogue #S8830)) and cleared (14,000g for 10 min) before use. Lysates were supplemented with 1 μg of purified GST-Ric-8A (12–491)[22] and 2 μg of mouse anti-FLAG antibody (Sigma F1804), and incubated for 4 h at 4 °C with rotation. BSA-blocked Protein G agarose beads (Thermo-Scientific) were added and tubes incubated for additional 90 min at 4 °C. Beads were washed four times (4.3 mM Na2HPO4, 1.4 mM KH2PO4, pH 7.4, 137 mM NaCl, 2.7 mM KCl, 0.1% (v/v) Tween 20, 10 mm MgCl2, 5 mm EDTA and 1 mm DTT) and immunoprecipitated proteins eluted by boiling in Laemmli sample buffer. […]

[6] = test system: Gαi3; settings: GBA motif of CALNUC; cited from earlier work
From the text: The disordered nature of GIV-CT is intrinsic and not a consequence of the truncation of the protein at residue 1,660 since disorder is predicted for the C-terminal 330 residues of the GIV sequence, and larger fragments of GIV can also recapitulate G-protein binding and/or activation in a GBA motif-dependent manner. The ...

B1: Ric-8A: non-receptor GEF used as control (protein)
chain: TGEEDAVTEALRSFNREHSQSFTFDDAQQEDRKRLAKLLVSVLEQGLSPKHRVTWLQTIRILSRDRSCLDSFASRQSLHALACYADIAISEEPIPQPPDMDVLLESLKCLCNLVLSSPTAQMLAAEARLVVRLAERVGLYRKRSYPHEVQFFDLRLLFLLTALRTDVRQQLFQELHGVRLLTDALELTLGVAPKENPLVILPAQETERAMEILKVLFNITYDSVKREVDEEDAALYRYLGTLLRHCVMADAAGDRTEEFHGHTVNLLGNLPLKCLDVLLALELHEGSLEFMGVNMDVINALLAFLEKRLHQTHRLKECVAPVLSVLTECARMHRPARKFLKAQVLPPLRDVRTRPEVGDLLRNKLVRLMTHLDTDVKRVAAEFLFVLCSESVPRFIKYTGYGNAAGLLAARGLMAGGRPEGQYSEDEDTDTEEYREAKASINPVTGRVEEKPPNPMEGMTEEQKEHEAMKLVNMFDKLSR
modifications: left off: GST, end not stated, kept
notes: non-receptor GEF used as control
- binding to Gαi3-[GTP] [1]: dissociation
- effect of removal of the C terminus of Gα [2]: abrogates
- binding to Gαi3-[GDP] [3]: weaker binding
- binding to Gαi3-[ ] [4]: binds preferentially
- co-immunoprecipitation with nucleotide-free-mimicking mutant compared with WT [5]: binds more

B2: GAIP: GAIP (also known as RGS19), a GAP used as control (protein)
chain: MPTPHEAEKQITGPEEADRPPSMSSHDTASPAAPSRNPCCLCWCCCCSCSWNQERRRAWQASRESKLQPLPSCEVCATPSPEEVQSWAQSFDKLMHSPAGRSVFRAFLRTEYSEENMLFWLACEELKAEANQHVVDEKARLIYEDYVSILSPKEVSLDSRVREGINKKMQEPSAHTFDDAQLQIYTLMHRDSYPRFLSSPTYRALLLQGPSQSSSEA
modifications: left off: GST, end not stated, kept
notes: GAIP (also known as RGS19), a GAP used as control
- binding to Gαi3-[GTP] [1]: binds exclusively
- binding to Gαi3-[GDP] [3]: not to Gαi3-[GDP]

B3: CALNUC: GBA motif protein with calcium-binding EF hands (protein, UniProt Q02818 27-461, looked up)
Nucleobindin-1: VPLERGAPNKEETPATESPDTGLYYHRYLQEVIDVLETDGHFREKLQAANAEDIKSGKLSRELDFVSHHVRTKLDELKRQEVSRLRMLLKAKMDAEQDPNVQVDHLNLLKQFEHLDPQNQHTFEARDLELLIQTATRDLAQYDAAHHEEFKRYEMLKEHERRRYLESLGEEQRKEAERKLEEQQRRHREHPKVNVPGSQAQLKEVWEELDGLDPNRFNPKTFFILHDINSDGVLDEQELEALFTKELEKVYDPKNEEDDMREMEEERLRMREHVMKNVDTNQDRLVTLEEFLASTQRKEFGDTGEGWETVEMHPAYTEEELRRFEEELAAREAELNAKAQRLSQETEALGRSQGRLEAQKRELQQAVLHMEQRKQQQQQQQGHKAPAAHPEGQLKFHPDTDDVPVPAPAGDQKEVDTSEKKLLERLPEVEVPQHL
- Gαi3 binding, calcium dependence [6]: only when the protein is not calcium-bound
